For 1 substance, Abl kinase activation (anti-phospho-Y412-Abl blot intensity normalized to total Abl-Myc, S2 cell lysates) results are on record in US20160346281A1.

This test deals with Myc-tagged Abl (Abl-Myc), Drosophila Abl (Drosophila melanogaster) (UniProt P00522). Kind of test: cell-based or functional assay.
Sequence of Myc-tagged Abl (Abl-Myc), Drosophila Abl (Drosophila melanogaster) (P00522 whole entry): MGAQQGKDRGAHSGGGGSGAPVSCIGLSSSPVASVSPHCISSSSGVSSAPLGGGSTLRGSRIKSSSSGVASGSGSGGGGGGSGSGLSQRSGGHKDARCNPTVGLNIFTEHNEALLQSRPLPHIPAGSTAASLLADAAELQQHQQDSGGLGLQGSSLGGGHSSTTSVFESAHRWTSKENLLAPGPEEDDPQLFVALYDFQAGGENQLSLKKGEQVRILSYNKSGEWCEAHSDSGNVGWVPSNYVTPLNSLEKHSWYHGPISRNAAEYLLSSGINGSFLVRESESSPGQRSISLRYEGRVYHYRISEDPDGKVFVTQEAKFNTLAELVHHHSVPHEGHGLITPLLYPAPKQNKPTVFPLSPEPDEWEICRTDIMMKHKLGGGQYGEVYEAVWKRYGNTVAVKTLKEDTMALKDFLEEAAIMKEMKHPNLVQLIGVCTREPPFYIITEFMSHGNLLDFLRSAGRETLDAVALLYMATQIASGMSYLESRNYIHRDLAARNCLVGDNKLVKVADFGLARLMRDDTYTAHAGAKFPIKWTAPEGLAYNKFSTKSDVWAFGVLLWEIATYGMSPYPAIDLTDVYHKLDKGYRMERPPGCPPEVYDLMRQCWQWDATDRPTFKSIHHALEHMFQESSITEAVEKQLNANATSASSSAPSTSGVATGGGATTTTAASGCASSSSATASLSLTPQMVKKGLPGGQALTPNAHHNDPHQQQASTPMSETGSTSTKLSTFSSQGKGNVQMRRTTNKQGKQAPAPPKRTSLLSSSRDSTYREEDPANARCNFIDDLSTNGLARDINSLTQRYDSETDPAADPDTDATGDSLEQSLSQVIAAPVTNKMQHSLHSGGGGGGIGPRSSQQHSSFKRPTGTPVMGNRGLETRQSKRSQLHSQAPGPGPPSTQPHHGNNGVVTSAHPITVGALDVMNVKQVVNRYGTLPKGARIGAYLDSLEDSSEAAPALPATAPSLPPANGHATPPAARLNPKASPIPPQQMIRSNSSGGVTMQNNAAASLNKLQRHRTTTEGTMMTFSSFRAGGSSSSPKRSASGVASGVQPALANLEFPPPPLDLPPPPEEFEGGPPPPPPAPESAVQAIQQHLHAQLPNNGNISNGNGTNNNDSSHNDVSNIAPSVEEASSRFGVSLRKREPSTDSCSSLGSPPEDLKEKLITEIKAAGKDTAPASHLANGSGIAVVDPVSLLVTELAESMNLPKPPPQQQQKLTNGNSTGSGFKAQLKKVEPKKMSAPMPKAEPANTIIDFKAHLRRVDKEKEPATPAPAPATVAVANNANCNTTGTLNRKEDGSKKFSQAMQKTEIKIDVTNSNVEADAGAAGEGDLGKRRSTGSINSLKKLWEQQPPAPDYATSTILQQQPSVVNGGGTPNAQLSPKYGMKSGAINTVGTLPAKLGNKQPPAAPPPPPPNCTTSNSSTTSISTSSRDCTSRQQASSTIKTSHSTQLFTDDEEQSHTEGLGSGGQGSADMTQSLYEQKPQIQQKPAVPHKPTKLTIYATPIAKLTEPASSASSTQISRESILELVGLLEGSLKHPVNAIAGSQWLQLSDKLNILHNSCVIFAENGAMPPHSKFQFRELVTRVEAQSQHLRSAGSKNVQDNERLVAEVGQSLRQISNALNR

In turn, “GFP-tagged Dscam (Dscam[3.36.25.2]::GFP) (receptor)” registered an Abl kinase activation (anti-phospho-Y412-Abl blot intensity normalized to total Abl-Myc, S2 cell lysates) of 2.6 fold.
